Laboratory results reported in paper PMC3609778, “Truncated and Helix-Constrained Peptides with High Affinity and Specificity for the cFos Coiled-Coil of AP-1” (PLoS ONE, 2013).
Where a SMILES comes first, the peptide text is derived from it. Bridges are numbered along the chain shown (N, C = ends).

Assay: circular dichroism
Conditions: 10 mM K phosphate, 100 mM KF; pH 7; 20 °C; 150 uM

Q: With `CC[C@H](C)[C@H](NC(C)=O)C(=O)N[C@H]1CCCCNC(=O)C[C@@H](C(=O)N[C@@H](CCCCN)C(=O)N[C@@H](C)C(=O)N[C@H]2CCCCNC(=O)C[C@@H](C(=O)N[C@@H](Cc3c[nH]cn3)C(=O)N[C@H](C(=O)N[C@@H](C)C(=O)N[C@@H](CCC(N)=O)C(=O)N[C@@H](CC(C)C)C(N)=O)[C@@H](C)CC)NC(=O)[C@H](CCCNC(=N)N)NC(=O)[C@H](CC(C)C)NC(=O)[C@H](CCSC)NC2=O)NC(=O)[C@H](CCCNC(=N)N)NC(=O)[C@H](CC(C)C)NC(=O)[C@H](CCC(=O)O)NC1=O` (Ac-IKELRDKAKMLRDHIAQL-NH2; lactam 2-6, 9-13) as the molecule, how does the helicity read?
A: 0.35 frac

Q: Which helicity does the source give for `CC[C@H](C)[C@H](NC(C)=O)C(=O)N[C@H]1CCCCNC(=O)C[C@@H](C(=O)N[C@@H](CCCCN)C(=O)N[C@@H](C)C(=O)N[C@@H](CC(N)=O)C(=O)N[C@@H](CCSC)C(=O)N[C@@H](CC(C)C)C(=O)N[C@@H](CCCNC(=N)N)C(=O)N[C@@H](CCC(=O)O)C(=O)N[C@@H](Cc2c[nH]cn2)C(=O)N[C@H](C(=O)N[C@@H](C)C(=O)N[C@@H](CCC(N)=O)C(=O)N[C@@H](CC(C)C)C(N)=O)[C@@H](C)CC)NC(=O)[C@H](CCCNC(=N)N)NC(=O)[C@H](CC(C)C)NC(=O)[C@H](CCC(=O)O)NC1=O` (Ac-IKELRDKANMLREHIAQL-NH2; lactam 2-6) here?
A: 0.3 frac

Q: For `CC[C@H](C)[C@H](NC(C)=O)C(=O)N[C@@H](Cc1ccc(O)cc1)C(=O)N[C@@H](CCC(=O)O)C(=O)N[C@@H](CC(C)C)C(=O)N[C@@H](CCCNC(=N)N)C(=O)N[C@@H](CO)C(=O)N[C@@H](CCCCN)C(=O)N[C@@H](C)C(=O)N[C@H]1CCCCNC(=O)C[C@@H](C(=O)N[C@@H](Cc2c[nH]cn2)C(=O)N[C@H](C(=O)N[C@@H](C)C(=O)N[C@@H](CCC(N)=O)C(=O)N[C@@H](CC(C)C)C(N)=O)[C@@H](C)CC)NC(=O)[C@H](CCCNC(=N)N)NC(=O)[C@H](CC(C)C)NC(=O)[C@H](CCSC)NC1=O` (Ac-IYELRSKAKMLRDHIAQL-NH2; lactam 9-13), which helicity is on record?
A: 0.34 frac

Q: For `CC[C@H](C)[C@@H]1NC(=O)[C@H](CCC(=O)O)NC(=O)[C@@H](NC(=O)[C@H](CCCCN)NC(=O)[C@H](CC(C)C)NC(C)=O)CCCCNC(=O)C[C@@H](C(=O)N[C@@H](CC(C)C)C(=O)N[C@@H](CCCNC(=N)N)C(=O)N[C@H]2CCCCNC(=O)C[C@@H](C(=O)N[C@@H](CC(C)C)C(=O)N[C@@H](CCCNC(=N)N)C(=O)N[C@@H](CCC(=O)O)C(=O)N[C@@H](Cc3c[nH]cn3)C(N)=O)NC(=O)[C@H](CCCCN)NC(=O)[C@H](C)NC(=O)[C@H](CCCCN)NC2=O)NC(=O)[C@H](Cc2ccc(O)cc2)NC1=O` (Ac-LKKEIYDLRKKAKDLREH-NH2; lactam 3-7, 10-14), which helicity is on record?
A: 0.39 frac

Q: For `CC[C@H](C)[C@@H]1NC(=O)[C@H](CCC(=O)O)NC(=O)[C@@H](NC(=O)[C@H](CCCCN)NC(=O)[C@H](CC(C)C)NC(C)=O)CCCCNC(=O)C[C@@H](C(=O)N[C@@H](CC(C)C)C(=O)N[C@@H](CCCNC(=N)N)C(=O)N[C@@H](CCCCN)C(=O)N[C@@H](CCCCN)C(=O)N[C@@H](C)C(=O)N[C@H]2CCCCNC(=O)C[C@@H](C(=O)N[C@@H](Cc3c[nH]cn3)C(N)=O)NC(=O)[C@H](CCCNC(=N)N)NC(=O)[C@H](CC(C)C)NC(=O)[C@H](CCSC)NC2=O)NC(=O)[C@H](Cc2ccc(O)cc2)NC1=O` (Ac-LKKEIYDLRKKAKMLRDH-NH2; lactam 3-7, 13-17), which helicity is on record?
A: 0.49 frac

Q: Which helicity does the source give for `CC[C@H](C)[C@@H]1NC(=O)[C@H](Cc2c[nH]cn2)NC(=O)[C@@H](NC(=O)[C@H](CCCNC(=N)N)NC(=O)[C@H](CC(C)C)NC(=O)[C@@H]2CC(=O)NCCCC[C@H](NC(=O)[C@H](CCCNC(=N)N)NC(=O)[C@H](CC(C)C)NC(=O)[C@@H]3CC(=O)NCCCC[C@H](NC(=O)[C@H](CCCCN)NC(=O)[C@H](CC(C)C)NC(C)=O)C(=O)N[C@@H](CCC(=O)O)C(=O)N[C@@H]([C@@H](C)CC)C(=O)N[C@@H](Cc4ccc(O)cc4)C(=O)N3)C(=O)N[C@@H](CCCCN)C(=O)N[C@@H](C)C(=O)N[C@@H](CC(N)=O)C(=O)N2)CCCCNC(=O)C[C@@H](C(=O)N[C@@H](CC(C)C)C(N)=O)NC(=O)[C@H](C)NC1=O` (Ac-LKKEIYDLRKKANDLRKHIADL-NH2; lactam 3-7, 10-14, 17-21) here?
A: 0.43 frac
